Measured values as given in article PMC3446948, “Protection against Th17 Cells Differentiation by an Interleukin-23 Receptor Cytokine-Binding Homology Region” (PLoS ONE, 2012).

Assays:
Mouse IL-23 (mouse) = Mouse IL-23 (mouse) (UniProt Q9EQ14)
Human IL-23 = target: T1, Human IL-23 (human, UniProt Q9NPF7 20-189; P29460 23-328); experiment: ELISA; direct binding ELISA: 10 ng/well human IL-23 coated, various concentrations of IL23R-CHR added, bound IL23R-CHR detected by HRP-labelled IL23R mAb; non-linear regression; settings: both partners purified
T1 construct: Interleukin-23 subunit alpha (p19), human; subunit of the bought heterodimeric cytokine; Interleukin-12 subunit beta (p40), human; also called human IL-23 complex; source: bought: R&D
T1 sequence (looked up) 1: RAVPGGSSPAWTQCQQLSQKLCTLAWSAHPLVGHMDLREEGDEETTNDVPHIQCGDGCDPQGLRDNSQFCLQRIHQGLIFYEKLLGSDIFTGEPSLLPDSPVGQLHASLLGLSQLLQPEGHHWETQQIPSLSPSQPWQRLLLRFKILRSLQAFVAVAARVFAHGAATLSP
T1 sequence (looked up) 2: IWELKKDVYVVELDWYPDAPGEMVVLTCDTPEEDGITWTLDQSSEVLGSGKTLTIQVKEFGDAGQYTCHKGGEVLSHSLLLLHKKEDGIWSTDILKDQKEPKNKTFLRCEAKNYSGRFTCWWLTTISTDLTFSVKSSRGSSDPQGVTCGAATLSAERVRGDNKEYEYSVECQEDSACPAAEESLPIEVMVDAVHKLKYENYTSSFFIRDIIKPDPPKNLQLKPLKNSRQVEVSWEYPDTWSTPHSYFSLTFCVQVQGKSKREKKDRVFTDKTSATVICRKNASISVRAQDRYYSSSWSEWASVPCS

Mouse IL-23 (mouse), sequence (Q9EQ14 22-196, chain 1 of 2): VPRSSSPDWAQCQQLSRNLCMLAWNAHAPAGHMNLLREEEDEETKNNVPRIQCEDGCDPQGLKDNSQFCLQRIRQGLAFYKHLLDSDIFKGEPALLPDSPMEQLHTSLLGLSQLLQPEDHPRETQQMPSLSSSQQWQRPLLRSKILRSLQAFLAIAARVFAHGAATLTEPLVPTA
Mouse IL-23 (mouse), sequence (P43432 23-335, chain 2 of 2, further chain): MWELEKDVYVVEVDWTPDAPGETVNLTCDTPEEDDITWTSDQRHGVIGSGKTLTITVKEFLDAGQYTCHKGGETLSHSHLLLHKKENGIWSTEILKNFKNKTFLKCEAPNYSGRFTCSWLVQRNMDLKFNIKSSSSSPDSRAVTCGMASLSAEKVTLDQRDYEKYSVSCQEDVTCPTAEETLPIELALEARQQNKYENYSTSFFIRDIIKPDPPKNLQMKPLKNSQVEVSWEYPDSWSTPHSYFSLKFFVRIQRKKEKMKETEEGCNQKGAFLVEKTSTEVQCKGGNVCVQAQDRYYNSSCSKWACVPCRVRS

B1: Human IL-23 receptor cytokine-binding homology region (IL23R-CHR, amino acid residues 124-313) (domain or fragment)
chain: PPDIPDEVTCVIYEYSGNMTCTWNAGKLTYIDTKYVVHVKSLETEEEQQYLTSSYINISTDSLQGGKKYLVWVQAANALGMEESKQLQIHLDDIVIPSAAVISRAETINATVPKTIIYWDSQTTIEKVSCEMRYKATTNQTWNVKEFDTNFTYVQQSEFYLEPNIKYVFQVRCQETGKRYWQPWSSLFFH
modifications: Expressed in E. coli (non-glycosylated). The Trx-His6 tag was removed by enterokinase. A short vector/primer-derived N-terminal remnant remains and is omitted: printed as 'A', while the NcoI primer …
- percentage of IL-17a+ cells in mouse CD4+ T cells (flow cytometry) under Th17 polarisation with IL23R-CHR 0, 5 and 25 ug/ml, 72 h; the value given is that at 25 ug/ml (Mouse IL-23 (mouse)): 4.18%
- IC50 (Human IL-23): 0.09 µM
